Assays:
CAPZA2 = target: T1, CAPZA2 (Homo sapiens, UniProt P47755); assay: Flag IP-MS of i53/i53-DM baits: prey CAPZA2; type: binding; settings: 293T Flp-In/T-Rex extracts, LC-MS/MS, one column per replicate IP
T1 construct: endogenous in cells; host or cells: HEK293 Flp-In/T-REx
Procedure: (§1) Following immunoprecipitation of Flag-tagged i53 and i-53-DM from HEK293 Flp-In/T-REx cells, peptides were identified using LC-MS/MS. Proteins were digested in solution with trypsin (Sigma, T7575-1KT) and dried to completeness. For LC-MS/MS analysis, peptides were reconstituted in 5% formic acid and loaded onto a 12-15 cm fused silica column with pulled tip packed in-house with 3.5 μm Zorbax C18 (Agilent Technologies, Calif., USA).
(§2) i53 and i53-DM precipitates were analyzed using an LTQ (Thermo Scientific) coupled to an Agilent 1100 Series HPLC (Agilent Technologies). Peptides were eluted from the column using a 90 min period cycle with a linear gradient from 0% to 40% ACN in 0.1% formic acid. Tandem MS spectra were acquired in a data-dependent mode for the top 5 (LTQ) most abundant ions using collision-induced dissociation. Acquired spectra were searched against the human Refseq_V53 database using Mascot (Matrix Science).
(§3) 293T Flp-In/T-Rex cell lines were generated that expressed Flag-tagged i53 or i53-DM under the control of a tetracycline-inducible promoter as previously described. Nine IP-MS experiments were analyzed (3 biological replicate IPs each for control i53- and i53-DM expressing cell lines). The interacting proteins were identified by MASCOT to identify high-confidence interactors for i53. […]

[1] = tested on: BRCA1-deficient RPE1-hTERT cells; assay: Olaparib sensitivity assay; type: cell-based; settings: viral delivery of HA-tagged i53; compared to genetic deletion of 53BP1; Trypan blue viable count
Excerpt: FIG. 9 Expression of i53 suppresses PARP inhibitor sensitivity of BRCA1-deficience cells. FIG. 9A, An isogenic set of cell lines derived from RPE 1-hTERT cells deleted for the gene coding for p53 (TP53Δ) containing either no further mutations (WT) or null mutations in BRCA1 (BRCA1Δ) or 53BP1 (53BP1Δ) alone or in combination, as indicated. These cell lines were transduced either with an empty virus (EV) or with lentiviruses that express HA-tagged i53 or its DM mutant. The virus also expressed GFP from an IRES. After sorting for GFP cells the viability of cells following olaparib treatment for […] was monitored by trypan blue exclusion. Data is presented as the mean +/− s.d. (N=3). FIG. 9B , Whole-cell extracts from the isogenic sets of RPE1-hTERT TP53Δ cells were separated by SDS page and probed by immunoblotting with the indicated antibodies. FIG. 9C , Expression of the HA-tagged Ubvs in the indicated RPE1-hTERT TP53Δ cell lines was determined by anti-HA immunoprecipitation (IP) followed by immunoblotting.
RPE1 hTERT cells were obtained from ATTC and maintained in DMEM +10% FCS. […]
Cells were seeded at a density of 20,000 cells/well in 6-well plates in the presence of olaparib at day 0. […] At day 6, cells were collected by trypsinization and viable cell count was determined by Trypan blue exclusion using an automated cell counter (Vi-CELL, Beckman Coulter).

NAP1L1 = target: T2, NAP1L1 (Homo sapiens, UniProt P55209); assay: Flag IP-MS of i53/i53-DM baits: prey NAP1L1; type: binding; settings: 293T Flp-In/T-Rex extracts, LC-MS/MS, one column per replicate IP
T2 construct: endogenous in cells; host or cells: HEK293 Flp-In/T-REx
T2 sequence (P55209 1-391): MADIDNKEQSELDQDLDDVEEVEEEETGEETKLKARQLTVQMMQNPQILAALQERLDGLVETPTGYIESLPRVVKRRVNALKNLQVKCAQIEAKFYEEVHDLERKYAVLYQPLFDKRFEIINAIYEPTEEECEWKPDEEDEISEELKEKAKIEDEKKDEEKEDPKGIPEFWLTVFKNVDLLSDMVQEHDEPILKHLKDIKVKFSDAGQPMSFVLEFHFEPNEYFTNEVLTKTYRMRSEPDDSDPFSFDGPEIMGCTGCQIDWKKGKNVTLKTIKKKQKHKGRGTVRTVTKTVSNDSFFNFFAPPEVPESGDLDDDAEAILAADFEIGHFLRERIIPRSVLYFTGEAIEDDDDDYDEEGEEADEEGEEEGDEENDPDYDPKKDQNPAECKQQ
Procedure: as §1, §2, §3

RPL17 = target: T3, RPL17 (Homo sapiens, UniProt P18621); assay: Flag IP-MS of i53/i53-DM baits: prey RPL17; type: binding; settings: 293T Flp-In/T-Rex extracts, LC-MS/MS, one column per replicate IP
T3 construct: endogenous in cells; host or cells: HEK293 Flp-In/T-REx
Procedure: as §1, §2, §3

TRIOBP = target: T4, TRIOBP (Homo sapiens, UniProt Q9H2D6); assay: Flag IP-MS of i53/i53-DM baits: prey TRIOBP; type: binding; settings: 293T Flp-In/T-Rex extracts, LC-MS/MS, one column per replicate IP
T4 construct: endogenous in cells; host or cells: HEK293 Flp-In/T-REx
Procedure: as §1, §2, §3

T4 sequence (Q9H2D6 whole entry): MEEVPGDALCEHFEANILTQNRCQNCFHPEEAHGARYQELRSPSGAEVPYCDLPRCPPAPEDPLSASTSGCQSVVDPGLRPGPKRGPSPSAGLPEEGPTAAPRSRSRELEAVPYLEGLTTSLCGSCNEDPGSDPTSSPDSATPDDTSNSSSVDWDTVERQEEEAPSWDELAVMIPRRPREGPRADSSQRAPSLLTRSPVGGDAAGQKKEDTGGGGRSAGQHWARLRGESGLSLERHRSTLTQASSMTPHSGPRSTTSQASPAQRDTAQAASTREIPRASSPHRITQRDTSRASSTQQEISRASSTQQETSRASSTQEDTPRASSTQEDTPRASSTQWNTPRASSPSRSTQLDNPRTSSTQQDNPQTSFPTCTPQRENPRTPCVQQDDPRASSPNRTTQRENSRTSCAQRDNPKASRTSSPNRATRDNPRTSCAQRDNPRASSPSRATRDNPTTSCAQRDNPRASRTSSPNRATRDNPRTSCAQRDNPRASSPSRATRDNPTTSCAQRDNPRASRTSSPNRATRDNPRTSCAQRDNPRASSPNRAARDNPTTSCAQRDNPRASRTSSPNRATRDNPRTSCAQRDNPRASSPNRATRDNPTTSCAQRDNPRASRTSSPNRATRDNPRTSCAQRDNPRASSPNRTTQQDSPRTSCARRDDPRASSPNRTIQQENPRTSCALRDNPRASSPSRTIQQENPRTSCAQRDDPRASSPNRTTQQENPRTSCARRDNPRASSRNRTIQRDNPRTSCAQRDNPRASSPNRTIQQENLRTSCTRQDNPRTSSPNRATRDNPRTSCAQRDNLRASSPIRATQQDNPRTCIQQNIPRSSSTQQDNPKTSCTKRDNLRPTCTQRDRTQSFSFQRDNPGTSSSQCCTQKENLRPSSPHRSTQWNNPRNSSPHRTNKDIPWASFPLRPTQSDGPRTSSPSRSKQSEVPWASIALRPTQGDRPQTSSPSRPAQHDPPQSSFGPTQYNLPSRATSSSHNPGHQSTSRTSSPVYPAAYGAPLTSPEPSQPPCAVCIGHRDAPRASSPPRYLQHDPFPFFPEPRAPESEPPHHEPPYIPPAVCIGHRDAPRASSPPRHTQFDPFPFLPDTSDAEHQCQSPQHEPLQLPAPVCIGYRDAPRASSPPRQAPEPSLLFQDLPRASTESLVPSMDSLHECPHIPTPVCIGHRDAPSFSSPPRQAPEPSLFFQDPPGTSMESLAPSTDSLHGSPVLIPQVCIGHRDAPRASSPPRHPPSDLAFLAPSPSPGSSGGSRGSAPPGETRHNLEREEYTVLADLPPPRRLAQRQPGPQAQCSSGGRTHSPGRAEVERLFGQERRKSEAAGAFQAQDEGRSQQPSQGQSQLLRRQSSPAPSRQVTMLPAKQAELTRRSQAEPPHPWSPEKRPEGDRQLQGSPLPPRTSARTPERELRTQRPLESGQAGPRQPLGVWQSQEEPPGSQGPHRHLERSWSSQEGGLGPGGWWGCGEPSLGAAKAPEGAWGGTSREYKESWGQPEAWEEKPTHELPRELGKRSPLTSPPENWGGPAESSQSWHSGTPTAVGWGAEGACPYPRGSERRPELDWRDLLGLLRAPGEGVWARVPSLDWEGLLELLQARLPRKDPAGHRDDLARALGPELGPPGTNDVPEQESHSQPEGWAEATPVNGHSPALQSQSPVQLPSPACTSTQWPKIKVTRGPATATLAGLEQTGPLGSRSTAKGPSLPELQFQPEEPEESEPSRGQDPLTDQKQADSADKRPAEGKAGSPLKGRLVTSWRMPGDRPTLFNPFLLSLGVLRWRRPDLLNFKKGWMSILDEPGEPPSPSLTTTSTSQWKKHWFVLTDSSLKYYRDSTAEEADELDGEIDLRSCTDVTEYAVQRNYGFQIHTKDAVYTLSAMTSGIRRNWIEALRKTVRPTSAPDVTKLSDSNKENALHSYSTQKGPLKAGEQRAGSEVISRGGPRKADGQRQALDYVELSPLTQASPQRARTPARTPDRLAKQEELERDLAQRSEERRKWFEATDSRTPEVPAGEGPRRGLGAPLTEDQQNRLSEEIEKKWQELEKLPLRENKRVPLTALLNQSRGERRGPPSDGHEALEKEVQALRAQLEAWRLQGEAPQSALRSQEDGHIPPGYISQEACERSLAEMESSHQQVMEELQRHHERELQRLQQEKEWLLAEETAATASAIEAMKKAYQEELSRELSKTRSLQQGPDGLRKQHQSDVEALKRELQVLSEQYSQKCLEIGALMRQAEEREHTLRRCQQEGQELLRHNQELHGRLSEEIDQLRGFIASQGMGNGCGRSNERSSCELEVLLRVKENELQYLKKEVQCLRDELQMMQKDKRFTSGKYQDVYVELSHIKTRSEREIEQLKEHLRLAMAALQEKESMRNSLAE

Total peptides, CAPZA2 (CAPZA2) | Total peptides, NAP1L1 (NAP1L1) | Total peptides, RPL17 (RPL17) | Total peptides, TRIOBP (TRIOBP) | Substance | Alleviation of PARP inhibitor (olaparib) sensitivity [1]
7 | 4 | – | – | i53: UbvG08 with C-terminal di-glycine removed and I44A mutation; genetically encoded inhibitor of 53BP1 | only partially alleviated
– | – | 5 | 3 | i53-DM: 53BP1-binding deficient mutant of i53 (P69L, L70V) | –
